Measurements as given in patent US20190389958A1 (MSM PROTEIN TECHNOLOGIES, published 2019).

T1: hCCR6 (human, UniProt P51684 1-374)
T1 construct: whole, on cells
T1 sequence (looked up): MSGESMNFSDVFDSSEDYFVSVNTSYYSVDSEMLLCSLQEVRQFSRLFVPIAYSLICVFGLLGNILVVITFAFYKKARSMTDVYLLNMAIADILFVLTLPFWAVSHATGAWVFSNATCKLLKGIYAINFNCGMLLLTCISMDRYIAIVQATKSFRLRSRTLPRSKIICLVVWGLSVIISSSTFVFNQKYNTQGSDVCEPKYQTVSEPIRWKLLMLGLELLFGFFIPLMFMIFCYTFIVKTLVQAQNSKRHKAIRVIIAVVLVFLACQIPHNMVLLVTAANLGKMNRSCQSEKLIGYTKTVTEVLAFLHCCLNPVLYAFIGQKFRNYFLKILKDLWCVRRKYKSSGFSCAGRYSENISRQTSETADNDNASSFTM

T2: hCCR9 (human, UniProt P51686 1-369)
T2 construct: whole, on cells
T2 sequence (looked up): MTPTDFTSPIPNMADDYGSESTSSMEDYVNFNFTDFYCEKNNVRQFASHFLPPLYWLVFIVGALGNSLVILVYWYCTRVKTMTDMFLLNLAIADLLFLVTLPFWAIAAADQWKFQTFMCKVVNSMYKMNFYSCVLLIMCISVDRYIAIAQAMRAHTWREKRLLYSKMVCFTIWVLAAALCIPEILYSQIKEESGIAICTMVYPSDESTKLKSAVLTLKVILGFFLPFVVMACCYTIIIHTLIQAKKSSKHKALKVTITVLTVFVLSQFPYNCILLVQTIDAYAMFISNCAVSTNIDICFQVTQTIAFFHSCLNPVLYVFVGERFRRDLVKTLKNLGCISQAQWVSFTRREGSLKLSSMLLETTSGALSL

T3: hCCR10 (human, UniProt P46092 1-362)
T3 construct: whole, on cells
T3 sequence (looked up): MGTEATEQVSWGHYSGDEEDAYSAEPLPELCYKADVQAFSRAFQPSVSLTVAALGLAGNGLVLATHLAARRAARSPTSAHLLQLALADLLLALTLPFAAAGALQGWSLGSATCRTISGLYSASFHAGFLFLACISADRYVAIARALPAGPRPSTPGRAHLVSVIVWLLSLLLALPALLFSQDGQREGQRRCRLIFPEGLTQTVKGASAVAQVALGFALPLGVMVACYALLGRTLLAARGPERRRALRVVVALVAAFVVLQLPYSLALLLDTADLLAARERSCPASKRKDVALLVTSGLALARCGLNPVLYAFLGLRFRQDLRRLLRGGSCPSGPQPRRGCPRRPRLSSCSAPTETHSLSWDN

T4: hCXCR3 (human, UniProt P49682 1-368)
T4 construct: whole, on cells
T4 sequence (looked up): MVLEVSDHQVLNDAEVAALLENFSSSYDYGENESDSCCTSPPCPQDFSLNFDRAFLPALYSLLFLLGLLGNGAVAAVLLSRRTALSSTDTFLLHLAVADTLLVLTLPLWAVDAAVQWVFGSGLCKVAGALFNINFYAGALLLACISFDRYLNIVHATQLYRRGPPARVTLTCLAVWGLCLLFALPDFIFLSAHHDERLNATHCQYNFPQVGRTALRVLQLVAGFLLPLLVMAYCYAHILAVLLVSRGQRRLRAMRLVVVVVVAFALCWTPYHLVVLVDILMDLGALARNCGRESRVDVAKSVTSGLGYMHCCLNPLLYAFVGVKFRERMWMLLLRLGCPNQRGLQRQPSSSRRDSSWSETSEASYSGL

B1: V62.1-R108H (antibody, human IgG1, V domains shown)
VH: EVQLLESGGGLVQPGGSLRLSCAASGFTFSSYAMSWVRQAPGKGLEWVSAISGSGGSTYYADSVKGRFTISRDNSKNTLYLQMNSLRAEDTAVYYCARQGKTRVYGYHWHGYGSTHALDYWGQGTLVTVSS
VL: EIVLTQSPGTLSLSPGERATLSCRASQSVSSSYLAWYQQKPGQAPRLLIYGASSRATGIPDRFSGSGSGTDFTLTISRLEPEDFAVYYCQQSDYSYPFTFGQGTKVEIKR
notes: Tested as an IgG (human IgG1 format); also called IgG1 V62.1 R108H
B2: V62.1 (antibody, human IgG1, V domains shown)
VH: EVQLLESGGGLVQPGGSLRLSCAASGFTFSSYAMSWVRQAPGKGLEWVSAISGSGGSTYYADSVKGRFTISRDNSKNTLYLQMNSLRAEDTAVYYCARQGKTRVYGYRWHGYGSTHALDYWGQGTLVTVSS
VL: B1 VL
notes: Tested as an IgG (human IgG1 format; DP47 heavy and DPK22 kappa light frameworks) made in CHO-3E7 cells; also called IgG V62.1
B3: V62.1-R108H-m80 (antibody, human IgG1, V domains shown)
VH: EVQLLESGGGLVQPGGSLRLSCAASGFTISPYSITWVRQAPGKGLEWVSQINSYNGKTYYADSVKGRFTISRDNSKNTLYLQMNSLRAEDTAVYYCARQGKTRVYGYHWHGYGSTHALDYWGQGTLVTVSS
VL: B1 VL
notes: Tested as an IgG (human IgG1 format); also called V62.1-H-m80; V62.1-R108H-m80-Wt
B4: V62.1-R108H-m47-m38 (antibody, human IgG1, V domains shown)
VH: EVQLLESGGGLVQPGGSLRLSCAASGFTFSSYAMSWVRQAPGKGLEWVSAISGSGGTRYADSVKGRFTISRDNSKNTLYLQMNSLRAEDTAVYYCARQGKTRVYGYHWHGYGSTHALDYWGQGTLVTVSS
VL: EIVLTQSPGTLSLSPGERATLSCRASQSVSSSYLAWYQQKPGQAPRLLIYGASSRATGIPDRFSGSGSGTDFTLTISRLEPEDFAVYYCQQWSSDSVTFGQGTKVEIKR
notes: Tested as an IgG (human IgG1 format); also called V62.1-H-m47-m38; IgG1 62.1-R108H-m47-m38

Each binder was assayed against T5, human CXCR4 (human, UniProt P61073 1-352) (assay: cell-based or functional assay).
T5 sequence (P61073 whole entry): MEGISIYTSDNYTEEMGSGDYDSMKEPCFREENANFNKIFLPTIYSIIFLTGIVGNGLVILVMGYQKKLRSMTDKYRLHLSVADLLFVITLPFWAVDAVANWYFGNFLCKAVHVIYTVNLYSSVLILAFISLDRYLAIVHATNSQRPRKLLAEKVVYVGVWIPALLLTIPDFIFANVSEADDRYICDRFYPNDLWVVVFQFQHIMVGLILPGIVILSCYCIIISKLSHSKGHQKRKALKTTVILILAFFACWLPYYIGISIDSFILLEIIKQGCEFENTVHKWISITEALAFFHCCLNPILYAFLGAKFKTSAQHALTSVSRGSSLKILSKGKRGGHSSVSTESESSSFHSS

% Inhibition of SDF-1alpha-induced chemotaxis of U937 cells (IgG at 100 nM) | Binder
69% | B1
76% | B2
75% | B3
78% | B4

Each binder was assayed against T1, hCCR6 (assay: flow cytometry, IgG 100 nM, cells over-expressing hCCR6).
Procedure: (§1) Cells over-expressing different GPCRs other than CXCR4 and several lines transfected to over-express CXCR4 (R1610-hCXCR4, Cf2Th-hCXCR4 and CHO-hCXCR4) were compared. Cultures were incubated with a test IgG at 100 nM in FACS buffer for 40 min at 4° C. Thereafter, cells were washed twice, stained with anti-human-Fc antibody-PE conjugate (Jackson Immunoresearch Laboratories Inc., West Grove, Pa.), washed twice in FACS buffer and then transferred to FIX buffer. Fluorescence intensities were measured by GUAVA PCA-96 at 425V (in triplicate).
(§2) The expression of GPCRs other than CXCR4 was confirmed using commercially available antibodies (positive controls). For example, a commercial anti-CXCR1 antibody was used as a positive control for confirming the expression of CXCR1 on the CXCR1-transfected CHO cells.

MFI | Binder
3 | B1
3 | B2
10 | B3
2 | B4

What follows are binders tested against T5, human CXCR4 (assay: flow cytometry, IgG 100 nM, Cf2Th-hCXCR4 cells).
Procedure: as §1

MFI | Binder
861 | B1
1270 | B2
3870 | B3
2350 | B4

Target: T5, human CXCR4
Test: cell-based or functional assay
Remark: another data set of the same source

IC50 (nM), inhibition of SDF-1alpha-induced calcium flux | Binder
6.8 nM | B1
7.4 nM | B2
7.5 nM | B3
5 nM | B4

Each binder was assayed against T6, hCXCR6 (human, UniProt O00574 1-342) (assay: flow cytometry, IgG 100 nM, cells over-expressing hCXCR6).
T6 construct: whole, on cells
Procedure: as §1, §2

T6 sequence (O00574 whole entry): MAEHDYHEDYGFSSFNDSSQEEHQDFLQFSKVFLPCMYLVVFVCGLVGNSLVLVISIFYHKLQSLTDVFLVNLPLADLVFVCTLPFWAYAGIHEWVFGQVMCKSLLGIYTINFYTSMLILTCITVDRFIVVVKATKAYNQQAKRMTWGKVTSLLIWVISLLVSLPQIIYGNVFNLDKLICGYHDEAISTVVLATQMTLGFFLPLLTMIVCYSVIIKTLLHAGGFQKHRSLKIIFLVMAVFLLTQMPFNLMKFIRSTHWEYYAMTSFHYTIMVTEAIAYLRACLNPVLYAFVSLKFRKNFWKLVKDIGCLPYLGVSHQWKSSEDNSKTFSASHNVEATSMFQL

MFI | Binder
3 | B1
3 | B2
7 | B3
2 | B4

What follows are binders tested against T5, human CXCR4 (assay: flow cytometry, IgG 10 µg/mL, CXCR4-expressing Ramos (RA1) cells).
Procedure: Binding of test IgGs to CXCR4-expressing human lymphoma cells (Ramos; RA1, ATCC® CRL-1596™) was measured by fluorescent flow cytometry-based assay. Tumor cell staining was conducted as follows: human Fcγ receptors of RA1 cells were saturated by incubation at 4° C. for 30 minutes in PBS containing 2% human serum and 0.5 mM EDTA. Cells were then incubated at 4° C. for one hour with test IgGs or a human isotypic IgG1 kappa control (Coger Sarl, Paris, France) (both antibody types at 10 μg/mL). The cells were washed with PBS and further incubated for one hour at 4° C. with a goat F(ab′)2 fragment anti-human IgG (H+L)-PE (Beckman Coulter). The cells were washed twice with PBS and fixed with 0.5% formaldehyde in PBS for analysis by flow cytometry. The data were acquired using an eleven-color flow cytometer (LSRII, BD Biosciences), and the analyses were performed with the FlowJo flow cytometry analysis software (Tree Star Inc., Ashland, Oreg.). The living cells were selected using the side scatter (SSC) and the forward scatter (FSC); 10,000 events were acquired for each analysis. MFI values were recorded using the PE channel.

MFI | Binder
429 | B1
595 | B2
440 | B3
549 | B4

What follows are binders tested against T7, hCCR5 (human, UniProt P51681 1-352) (assay: flow cytometry, IgG 100 nM, cells over-expressing hCCR5).
T7 construct: whole, on cells
Procedure: as §1, §2

T7 sequence (P51681 whole entry): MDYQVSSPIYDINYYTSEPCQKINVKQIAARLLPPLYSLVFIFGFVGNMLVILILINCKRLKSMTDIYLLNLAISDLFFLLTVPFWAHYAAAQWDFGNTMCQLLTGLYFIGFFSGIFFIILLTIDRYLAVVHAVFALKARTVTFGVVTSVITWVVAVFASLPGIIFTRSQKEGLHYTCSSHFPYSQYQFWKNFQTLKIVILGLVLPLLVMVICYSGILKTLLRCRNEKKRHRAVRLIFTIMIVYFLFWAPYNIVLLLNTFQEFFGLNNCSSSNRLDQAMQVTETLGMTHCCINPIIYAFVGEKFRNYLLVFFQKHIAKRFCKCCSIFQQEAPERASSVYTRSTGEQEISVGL

MFI | Binder
3 | B1
4 | B2
8 | B3
2 | B4

These binders were tested against T2, hCCR9 (assay: flow cytometry, IgG 100 nM, cells over-expressing hCCR9).
Procedure: as §1

MFI | Binder
3 | B1
4 | B2
8 | B3
2 | B4

The binders below were run against T3, hCCR10 (assay: flow cytometry, IgG 100 nM, cells over-expressing hCCR10).
Procedure: as §1, §2

MFI | Binder
3 | B1
4 | B2
10 | B3
2 | B4

What follows are binders tested against T4, hCXCR3 (assay: flow cytometry, IgG 100 nM, cells over-expressing hCXCR3).
Procedure: as §1, §2

MFI | Binder
3 | B1
3 | B2
2 | B3
2 | B4
